From US20090075291A1, “PEPTIDE-BASED REGULATION OF GAP JUNCTIONS” (The Research Foundation of State University of New York, priority 2006, published 2009)

Molecular target: Recombinant Cx43CT (carboxyl terminal domain of rat connexin43, residues 255-382, preceded by GPLG) (rat) (UniProt P08050)
Assay: SPR, peptide 1.0 mM

Recombinant Cx43CT (carboxyl terminal domain of rat connexin43, residues 255-382, preceded by GPLG) (rat), sequence (P08050 other isoform, or with tags, fused parts or gaps limits assumed): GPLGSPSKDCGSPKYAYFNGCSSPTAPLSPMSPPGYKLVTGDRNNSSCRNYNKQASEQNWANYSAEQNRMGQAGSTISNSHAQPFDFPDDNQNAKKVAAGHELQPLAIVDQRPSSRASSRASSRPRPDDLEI

- Response Dose (arbitrary units): 4.6
Substance: Peptide 2502, AcRNP-NH2
